From publication PMC6939381

Molecular target: CohE-CBM(C63S)-ybbR (Ruminococcus flavefaciens)
Assay: ITC

Substance: ybbR-CBM(C63S)-ScaB-XDoc (domain or fragment)
- Kd: 149 nM
